{
  "source": "patent US8487082B2",
  "about": "“Synthetic scFv analogue to the 6313/G2 (anti angiotensin II type 1 receptor) monoclonal antibody variable regions” (Queen Mary & Westfield College, priority 2008, dated 2013)",
  "key": {"MDA-MB-231 cells": {"test_system": "MDA-MB-231 cells", "test": "Cell viability assay (XTT)", "type": "cell-based", "details": "MDA-MB-231, 100 nmol angiotensin II per L, XTT, 48 hours", "experimental": "(§1) MCF-7, T47D and MDA-MB-231 breast cancer cells were obtained from The American Tissue Culture Collection (LGC Promochem, Teddington, UK). Rat aortic smooth muscle cells (RASMC) were developed from primary culture (Barker et al., 1996). MCF-7 cells were maintained in Minimal Essential Medium (MEM), T47D and MDA-MB-231 cells in RPMI 1640 medium, and RASMC were maintained in Dulbecco's Modified Eagle's Medium (DMEM). All media were supplemented with 2 mM L-glutamine, 10% fetal bovine serum (FBS), 50 U/ml penicillin and 0.05 mg/ml streptomycin. Cells were maintained at 37° C. in a humidified atmosphere ([…], 5% CO2).\n(§2) Confluent cell monolayers were removed from tissue culture flasks using trypsin/EDTA. Cells (15×10^3 per well) were seeded into 96 well tissue culture plates containing the appropriate medium for each cell line. […] Cell viability was assessed by the ability of metabolically active cells to reduce 2,3-bis[2-Methoxy-4-nitro-5-sulphophenyl]-2H-tetrazolium-5-carboxyanilide inner salt (XTT) to the coloured formazan product. Absorbance was measured using a Multiskan Ascent microplate reader (Thermo Labsystem, Helsinki, Finland) at a wavelength of 450 nm and a reference wavelength of 630 nm. Each measurement was performed in triplicate. IC50s were calculated using a non-linear regression formula using GraphPad Prism v4.0 software (GraphPad Software Inc, San Diego Calif., USA)."}, "MCF-7 cells": {"test_system": "MCF-7 cells", "test": "Cell viability assay (XTT)", "type": "cell-based", "details": "MCF-7, 100 nmol angiotensin II per L, XTT, 48 hours", "experimental": "as §1, §2"}, "T47D cells": {"test_system": "T47D cells", "test": "Cell viability assay (XTT)", "type": "cell-based", "details": "100 nmol angiotensin II per L, XTT, 48 hours", "experimental": "as §1, §2"}, "[1]": {"molecular_target": "biotinylated peptide antigen (AT1 receptor) (Rattus norvegicus, UniProt P25095)", "test": "Quartz crystal microbalance binding (Attana 100)", "details": "9 μg/ml, 100 second injection period; listed as 12D", "experimental": "Data were obtained comparing the characteristics of binding of the scFv variants and IgM to immobilised peptide antigen using the Attana 100 Quartz Crystal Microbalance. This involved use of a streptavidin (0.1 mg/ml)-coated biotin “chip” (gold-plated quartz crystal in an Attana 100 Biosensor (Quartz crystal microbalance (QCM)) (Attana AB, Stockholm, Sweden). Peptide antigen corresponding to that sequence used to raise the original murine hybridoma, biotinylated at the C-terminus, was then run across the chip at a concentration of 4 μg/ml to create a binding target for scFvs and IgM that were subsequently run across the surface of the QCM chip. Attester software (Attana, Sweden) was used to monitor changes in resonance frequency of the QCM chip in response to binding of a test antibody to the antigen. The magnitude of deflection in Hz over the period of sample injection of 100 s in Hz/second was determined for each antibody at a concentration of 9 μg/ml. The rate at which the antibody was then released from the QCM chip was also measured in Hz/second from the straight-line portion of the biosensor trace as antibody gradually departed from the chip and as the resonance frequency of the chip decreased. Running buffer was PBS containing 0.005% Tween 20 (PBST) and this was also used to make antibody dilutions to give a final protein concentration of 9 μg/ml in each case. The Attana 100 was set up with a 50 μl injection loop and was running with a constant pump speed of 20 μl/min. Samples and PBST buffer controls were injected over 100 seconds giving a sample volume across the chip of 33 μl. 100 mM (6.6 μl volume) phosphoric acid solution was used to regenerate the strepavidin-antigen surface between individual experimental sample runs."}, "[2]": {"test_system": "cancer cells in hollow fibers", "test": "In vivo hollow fiber assay (summary statements)", "set-up": "species or system nu/nu mice", "experimental": "Hollow Fiber procedures followed the method of Hollingshead. (Hollingshead et al Life Sci 57 131-41 (1995)).\nCell-loaded hollow fiber segments were incubated at 37° C. in culture medium overnight before implantation into pure strain 5-6 week old female balb/c nu/nu mice. Fibers were implanted into the animals under anaesthesia (2% Isofluorane). Three 2 cm fibers, each containing one of the cell lines MCF-7, T47D, or MDA-MB-231, were implanted at both subcutaneous (s.c.) and intraperitoneal (i.p.) sites into each animal. For i.p. implants, a small incision was made through the skin and musculature of the ventral abdominal wall. Fibers were placed into the peritoneal cavity and both incisions were closed with metallic suture clips (Harvard Instruments, Edenbridge UK). For s.c. implants, a small incision was made dorsally. The fibers were implanted to the left of the dorsal midline in a cranial direction. The small incision was closed with metallic suture clips. […]\nCell viability was measured using a modified MTT assay. […] An aliquot (190 μl) from each well was transferred to a 96 well plate and absorbance read at 540 nm using a Multiskan Ascent photometric microplate reader (Thermo labsystem). Treated values were calculated as a percentage of the controls."}, "MCF7 cells": {"test_system": "MCF7 cells", "experimental": "Activation of caspases during apoptosis was determined using the Apo-ONE homogenous caspase-3/7 assay (Promega Corp, Southampton UK), according to the manufacturer's instructions. Briefly, cells were grown to 90% confluence and washed three times with sterile PBS. Cells were harvested using Trypsin/EDTA and counted. Cells (10^4 per well) were seeded into a 96 well plate and incubated with R6313/G2 at concentrations from 0.1 to 3 μM in the presence or absence of 100 nmol/L angiotensin II, total volume 150 μl, for 24 and 48 hours. After incubation, caspase-3/7 Z-DEVD-R110 substrate (100 μl) was added to each well. Blank wells contained reagent alone, and controls omitted the antibody and/or angiotensin II. Fluorescence was measured every 2 hours over an 8 hour period using a Fluostar Optima spectrofluorimeter (BMG Laboratories, Offenburg Germany), with an excitation wavelength of 485 nm and an emission wavelength of 535 nm."}},
  "note": "“Also recorded” adds a separate entry of the source. Like-named read-outs stand apart in the source and are kept apart here.",
  "data": [
    {"molecule": "R6313/G2: murine scFv analogue of the 6313/G2 anti-AT1 receptor monoclonal antibody variable domains, SEQ ID NO:15 (protein, 12D) scFv: YAAQPAMAQVKLQQSGPELEKPGASVKISCKASGYSFTGYNMNWVKQSNGKSLEWIGNIDPYYGGTTYNQKFKGKATLTVDKSSSTAYMQLKSLTSEDSAVYYCAREVDYWGQGTTVTVSSGGGGSGGGGSGGGGSDIELTQSPASLAVSLGQRATISYRASKSVSTSGYSYMHWNQQKPGQPPRLLIYLVSNLESGVPARFSGSGSGTDFTLNIHPVEEEDAATYYCQHIRELTRSEGTKLEIKRAAAGAPVPY", "values": [
      {"measurement": "Threshold value for inhibition of cell survival (P<0.05 or better)", "setting": "MDA-MB-231 cells", "value": 0.05, "unit": "µM"},
      {"measurement": "Threshold value for inhibition of cell survival (P<0.05 or better)", "setting": "MCF-7 cells", "value": 0.05, "unit": "µM"},
      {"measurement": "Threshold value for inhibition of cell survival (P<0.05 or better)", "setting": "T47D cells", "value": 1.25, "unit": "µM"},
      {"measurement": "IC50", "setting": "T47D cells; read-out: IC50, inhibition of cell survival", "value": 2800, "unit": "nM"},
      {"measurement": "change in resonance frequency (apparent on-rate, Hz/second) compared with IgM", "setting": "[1]", "value": "significantly greater increases in resonance frequency; also recorded: significantly greater changes in resonance frequency"},
      {"measurement": "in vitro concentration giving an anti-cancer cell effect equivalent to 25 nmol/Kg in vivo", "setting": "[2]; comparison of in vivo dose 25 nmol/Kg with in vitro", "value": 3.3, "unit": "µmol/L"},
      {"measurement": "cancer cell growth in hollow fibers", "setting": "[2]; intact nu/nu mice bearing cancer cells in hollow fibers", "value": "significantly inhibited cancer cell growth"},
      {"measurement": "caspase-3/7 activity", "setting": "MCF7 cells; MCF7, R6313/G2 alone", "value": "reduced caspase-3/7 activity"},
      {"measurement": "caspase-3/7 activity", "setting": "MCF7 cells; MCF7, in the presence of angiotensin II", "value": "dose dependently increased caspase-3/7 activity"}
    ]}
  ]
}
